Data on three compounds can be found in patent US8815213B2, “RGD-(bacterio)chlorophyll conjugates for photodynamic therapy and Imaging of Necrotic tumors” (Yeda Research and Development Co. Ltd., priority 2008, dated 2014).

Series [1] has as its system MDA-MB-231-RFP necrotic tumor domains. Briefly: Excised tumor fluorescence imaging, viable versus necrotic domains. It is filed as in vivo, mice. How it is done:
(§1) Mice were sacrificed, tumors were excised, cut in half and imaged at different time intervals: 10 min, 1, 4 and 24 h, 3, 5 and 7 days for MDA-MB-231-RFP and 7 days for MLS-mBanana using the Xenogen IVIS® System. Filter sets used for the fluorescence imaging are described in (vii).
The markedly different dynamic fluorescence patterns of necrotic and non-necrotic breast tumor xenografts implanted in the mammary pads, motivated investigation of the correlation between the tumor histology and compound 13 fluorescence signal accumulation. […] Images were taken at several time points (10 min, 1, 4 and 24 h, 3, 5 and 7 days post injection) using Xenogen IVIS® System as described in Materials and Methods, section (vii). Results shown in FIGS. 23-29 present compound 13 fluorescence accumulation at different time points. For each time point, 3 animals were tested. […] At 4 h, there was some diffusion towards the necrotic domain. […] In this set of experiments it was shown that as time progresses, compound 13 moves through the viable domain into the necrotic domain and accumulates there specifically for a long period of time.
In view of the pattern of accumulation observed for compound 13, other Bchl derivatives were tested. […] Images were taken using Xenogen IVIS® System as described above. […] Similar results were observed when tumors were excised 3 and 5 days post drug injection (N=3 for each time point).

Series [2] relates to xenografts of primary tumors. To be noted: up to; cited from earlier work.
Series [3] relates to MDA-MB-231-RFP non-necrotic tumors (~0.5 cm^3). Put plainly: In-vivo whole body NIR fluorescence imaging of drug up-take in primary non-necrotic MDA-MB-231-RFP xenograft tumors.
Experimental: (§2) (vi) Mouse tumor model—MDA-MB-231-RFP fluorescent human breast cancer cells and MLS-mBanana fluorescent human ovarian cancer cells (5×10^6 in 100 μl saline) were trypsinated and collected at subconfluency and then inoculated into the back or mammary fat pad of female mice. Tumors were allowed to develop to two desired sizes—necrotic tumors (˜1 cm^3, within 3-4 weeks) and non-necrotic tumors (˜0.5 cm^3 within 1-2 weeks).
(§3) (vii) Whole body fluorescence imaging—Mice were anaesthetized by i.p. injection of 30 μl mixture of 85:15 ketamine:xylazine. […] Red fluorescent protein (RFP), pRSETB-mBanana and the photosensitizers fluorescence were monitored by in-vivo optical imaging system, IVIS®100 (Xenogen Corp., Alameda, Calif.). Main filter set for tumor imaging comprised excitation filter at 500-550 nm and emission filter at 575-650 nm; Background filter set for subtracting tissue auto-fluorescence comprised excitation filter at 460-490 nm and emission filter at 575-650 nm. Drugs imaging main filter set comprised excitation filter at 665-695 nm and emission filter at 810-875 nm. Images were obtained during the same exposure time and are illustrated on the same linear color scale to allow for a qualitative comparison.
(§4) The same parameters were next examined in tumors ≦0.5 cm^3, which are non-necrotic.
For series [4], the system named is MDA-MB-231-RFP non-necrotic and necrotic tumors at the mammary pad. Briefly: Uptake of compound 25 in MDA-MB-231-RFP primary, necrotic and non necrotic tumors. Type of series: in vivo, CD1-nude mice. How it is done: Two experiments were performed in order to determine whether the tumor up-take of compound 13 and the resulted accumulation of the NIR fluorescence signal are driven by the RGD moiety. In the first experiment the accumulation of the fluorescence signal at different times after compound 13 injection was compared to that of free 2H-MLT (compound 25) injection to CD1-nude mice grafted with MDA-MB-231-RFP non-necrotic (≦0.5 cm^3) and necrotic (˜1 cm^3) tumors at the mammary pad. The second experiment was a competition assay between compound 13 and free c(RGDfK).
Dynamic fluorescence images were acquired for both necrotic and non necrotic tumors every 1-1.5 h for 8.5-9 h, and at 24 h after initial injection of compound 25 (FIGS. 18A-18B and 20A-20B) and for every 24 h for the following three days (FIGS. 19A-19B and 21A-21B). […] The fluorescence signal values were ˜2 orders of magnitude smaller than the maximally observed values for compound 13 (at much longer time intervals). The fluorescence signal dropped down to non-significant values already at 20 min post injection. Meanwhile, the fluorescence signal accumulated mostly in the liver and in the heart.

Series [5] relates to MDA-MB-231-RFP necrotic tumors. Briefly: Fluorescence signal measurement in necrotic tumors, tumor vs. collateral side. It is filed as in vivo. To be noted: average of 9 mice. How it is done: (viii) Fluorescence signal measurement in necrotic tumors—Tumor margins—region of interest (ROI), from the whole body in-vivo images was marked and the fluorescence signal within the circled margins was expressed in photon/sec.
The same ROI was used to measure photon/sec in the collateral side. In addition, for background measurements, tumor and collateral side ROIs were measured in three untreated mice and averaged. Measured values of the fluorescence from each ROI were divided by the area to provide normalized fluorescence signal intensity in photon/sec/cm^2. Signal measurements were collected from 15 min to 216 h post compound 13 injection. In each time point, the background was subtracted and the average was calculated as was the ratio between the fluorescence in the tumor margins and the collateral side.
In order to evaluate semi-quantitatively the accumulation pattern of compound 13 in necrotic tumors, the average fluorescence signal for compound 13 in necrotic tumors of 9 mice was calculated and plotted over 216 h, at several time points (FIG. 8). From 12 h post injection and onward the fluorescence signal from the tumor became distinctively stronger than that of an equivalent control region on the collateral side. The ratio of the fluorescence between the tumor and the collateral side increased in time and reached a plateau at ˜8 from 192 h.

For series [6], the system named is human ovarian MLS-mBanana primary tumors, necrotic (>1 cm^3). Put plainly: In-vivo NIR fluorescence imaging of uptake in MLS-mBanana primary necrotic tumors. The arrangement: species or system CD-1 nude female mice. The text has this:
In order to establish the generality of the results obtained in the experiments above, the accumulation of compound 13 in the necrotic domain was further examined in a different tumor type, generated from MLS-mBanana human ovarian cancer cell line. […] Shortly after injection, the compound 13 NIR fluoresces was mostly detected from the liver and the tumor.

Series [7] concerns MDA-MB-231-RFP primary non-necrotic tumors. Put plainly: Competition assay between compound 13 and free c(RGDfK) binding. Type of series: in vivo, mice. The following applies: 24 h. As for the experimental part:
(ix) Competition assay between compound 13 and free c(RGDfK) binding—Mice were injected with excess (8.5 μmol) of free c(RGDfK) peptide one hour prior to the injection of compound 13 (140 nmol). The control group was injected only with compound 13 (140 nmol). Fluorescent images were taken 24 h post compound 13 injection. Fluorescence imaging main filter set was used as described in (vii).
Compound 13 was administrated with or without prior injection of c(RGDfK) as described in Example 3.

Series [8] has as its system MLS-mBanana necrotic tumor domains. Put plainly: Excised tumor fluorescence imaging, MLS-mBanana. It is filed as in vivo, mice. To be noted: 7 days post drug injection. As for the experimental part: as §1
Here the results were somewhat different. In most cases the necrosis pattern in this type of tumor was not central, namely, there was a wide spread necrosis that was not specifically located in the middle of the tumor or generated from one place in the tumor. In these cases, the accumulation was not as prolonged. In the few cases where central necrosis was observed, the accumulation pattern was similar to that in the MDA-MB-231-RFP tumors. FIGS. 31-32 show the results obtained 7 days post drug injection.

Series [9] relates to orthotopic human breast MDA-MB-231-RFP primary tumor, necrotic (~1 cm^3). The following applies: mouse, in vivo.
Experimental: as §2, §3
The accumulation pattern of compound 13 in necrotic MDA-MB-231-RFP tumors (≧1 cm^3) in vivo was examined. […] Whole animal images were recorded concomitantly, using the filter sets as described in Materials and Methods section (vii) above. Dynamic fluorescence images were acquired every 1-1.5 h for 9 h, and at 24 h post injection of compound 13 (FIGS. 4A-4B), and then for every 24 h for the next 7 days (FIGS. 5A-5B).
For series [10], the system named is MDA-MB-231-RFP non-necrotic tumors (~0.5 cm^3). To be noted: mouse, in vivo.
Experimental: as §2, §3, §4
The subject of series [11] is MLS-mBanana non-necrotic tumors (~0.5 cm^3). The following applies: mouse, in vivo.
Text: Red fluorescent protein (RFP), pRSETB-mBanana and the photosensitizers fluorescence were monitored by in-vivo optical imaging system, IVIS®100 (Xenogen Corp., Alameda, Calif.). Main filter set for tumor imaging comprised excitation filter at 500-550 nm and emission filter at 575-650 nm; Background filter set for subtracting tissue auto-fluorescence comprised excitation filter at 460-490 nm and emission filter at 575-650 nm. Drugs imaging main filter set comprised excitation filter at 665-695 nm and emission filter at 810-875 nm. Images were obtained during the same exposure time and are illustrated on the same linear color scale to allow for a qualitative comparison.

Where a name gives a salt, the structure may show the parent alone. Read-outs that look alike come from different tables or passages of the source.

As to “Palladium 3^1-oxo-15-methoxycarbonyl-methyl-Rhodobacteriochlorin 13^1-(2-sulfoethyl)amide-17^3-c(RGDfK)amide potassium salt [compound 24]”, the “presence of drug in excised tumor” value in series [1] (nine days post drug injection, N=3) is given as “clearly present in the necrotic domain”. In addition, the “accumulation in xenografts of primary tumors” value in series [2] was 4 to 8 µM. For the same compound, the “time at which NIR fluorescence reached peak values in the liver” value in series [3] (15 mg/kg i.v., post drug injection) amounted to 5.5 h. Besides, the “time at which NIR fluorescence reached peak values in the tumor” value in [3] (15 mg/kg i.v., post injection) is approximately 2.5 h. Moreover, in [3] (24 hours post injection), the “fluorescence from the non-necrotic tumors” value is given as “practically no fluorescence”. Also, the “time of peak tumor fluorescence, averaged measurements” value in series [3] (post drug injection, 16 animals (compound 13), 5 animals (compound 24)) was in the range of 1 to 4.5 h.
Turning to `CC[C@H]1c2cc3[nH]c(c(CC(=O)OC)c4nc(cc5[nH]c(cc(n2)[C@@H]1C)c(C(C)=O)c5C)[C@@H](C)[C@@H]4CCC(=O)O)c(C(=O)NCCS(=O)(=O)[O-])c3C.[K+]` [compound 25, 3^1-oxo-15-methoxycarbonylmethyl-Rhodo-bacteriochlorin 13^1-(2-sulfoethyl) amide potassium salt], in series [4] (mouse, in vivo), the “accumulation in small (non-necrotic) and large (necrotic) tumors” value was “no short or long term accumulation was observed”; the “fluorescence signal values, smaller than the maximally observed values for compound 13” value was ~2 orders of magnitude. In [4] (post injection), the “time at which fluorescence signal dropped to non-significant values” was not above 20 min. The “time of maximal concentration (NIR fluorescence signal) in the tumor” value in [4] (post injection, if any concentration was observed at all) lay in the range of 5 to 10 min.
As for `CC[C@H]1c2cc3[nH]c(c(CC(=O)OC)c4nc(cc5[nH]c(cc(n2)[C@@H]1C)c(C(C)=O)c5C)[C@@H](C)[C@@H]4CCC(=O)NCCCC[C@@H]1NC(=O)[C@@H](Cc2ccccc2)NC(=O)[C@H](CC(=O)O)NC(=O)CNC(=O)[C@H](CCCNC(=N)N)NC1=O)c(C(=O)NCCS(=O)(=O)O)c3C` [compound 13, 3^1-oxo-15-methoxycarbonylmethyl-Rhodobacteriochlorin 13^1-(2-sulfoethyl) amide-17^3-c(RGDfK)amide potassium salt], in series [5] (from 192 h post injection), the “ratio of the fluorescence between the tumor and the collateral side, plateau” value is on record as approximately 8. In addition, in [5] (post injection), the “time from which tumor fluorescence signal is distinctively stronger than collateral side” value is recorded as not below 12 h. Moreover, in series [6] (mouse, in vivo), the “clearance compared with MDA-MB-231-RFP necrotic tumors” value is recorded as “markedly faster”, the “clearance from the tumor almost completed” value is 3 days, the “complete drug clearance by that time” value was not above 4 days and the “time of maximum concentration in the necrotic zone” value was determined as 24 h. The “concentration in necrotic tumors versus non-necrotic tumors” value in [6] (same linear fluorescence scale, 2 days post injection) is reported as “much higher”. In addition, the “accumulation in the tumor” value in [7] (140 nmol alone (control group)) is reported as “detectable”. For the same compound, in series [7] (140 nmol, 1 h after 8.5 μmol free c(RGDfK)), the “accumulation in the tumor” value was “no accumulation in the tumor was detected”. Also, the “location of drug fluorescence in excised tumor” value (“location of drug fluorescence” for short) in series [1] (10 min to 4 h post drug injection, 15 mg/kg) was “only at the viable area”. The “location of drug fluorescence” value in series [1] (24 h post injection) was “higher drug fluorescence from the necrotic domain”. In addition, the “location of drug fluorescence” value in series [1] (from three days post injection (3, 5 and 7 days)) is recorded as “shifted completely to the necrotic zone”. Besides, the “presence of drug in excised tumor” value in [8] (central necrosis) is on record as “clearly present in the necrotic domain”. In addition, the “presence of drug in excised tumor” value in [8] (no central necrosis) is “not present”. The “time of peak tumor concentration ratio, compared to other organs” value in series [9] is not below 48 h. Besides, in [9] (iv, 15 mg/kg), the “clearance from the liver in the following days” value is given as “completely clearing from the liver” and the “clearance from the tumor thereafter” value is recorded as “extremely slow clearance”. In series [10], the “clearance from the tumor after accumulation” value is less than 24 h; the “complete drug clearance by that time” value was not above 3 days; the “fluorescence from the non-necrotic tumors” value was “practically no fluorescence”; the “time of peak tumor fluorescence, averaged measurements” value fell in the range of 1 to 6.5 h. Moreover, in series [11], the “almost complete drug clearance by that time” value is listed as not above 4 days; the “time at which NIR fluorescence reached peak values in the tumor” value is reported as approximately 1 h; the “time of peak tumor fluorescence, average measurements” value was 1 to 3.5 h.
